According to US20160030477:

Legend:
Assay in all cases: cell_activity
ZFN 50773 (synthetic) = details: pair 50773/49812, K562, AAV6 donor
ZFN 49812 (synthetic) = details: pair 50773/49812, K562, AAV6 donor
ZFN 44271 (synthetic) = details: pair 44298:44271, K562, day 3 (36.6% day 10; GFP 0.2%)
ZFN 44298 (synthetic) = details: pair 44298:44271, K562, day 3 (36.6% day 10; GFP 0.2%)

Q: “ATGATAAAGCTGCAAACCCAAAGAAACT (double strand) [RAG1 site 4 (50773)]” was tested. Which activity (% targeted integration) (ZFN 50773 (synthetic)) did it give?
A: Its activity (% targeted integration) is 5.

Q: With “CTTTTATGACCCATTTGGAAGAAATAAA (double strand) [RAG1 site 4 (55002/55005/49812)]” as the sequence, how does the activity (% targeted integration) (ZFN 49812 (synthetic)) read?
A: Its activity (% targeted integration) is 5.

Q: With “GCCAGTGGCAGGCACCAGATCTCTGTAC (double strand) [IL2RG 44271 site]” as the sequence, how does the activity (ZFN 44271 (synthetic)) read?
A: Its activity is 42.8 % indels.

Q: Which activity (ZFN 44298 (synthetic)) does the source give for “TTACAATCATGTGGGCAGAATTGAAAAG (double strand) [IL2RG 44298 site]” here?
A: The activity was 42.8 % indels.
